Our source for the Kd values is PMC3068246.

The target in the test is cis GFP: loop:s11 (light-activated truncated GFP with the 11th β-strand removed, chromophore in the cis configuration). In words: absorbance spectroscopy.

As to “s11, synthetic peptide corresponding to strand 11 of GFP”, the Kd was less than 1 pM.

Usually Kd stands for the concentration at which binding is half-saturated. Read a low Kd as higher affinity.
